Laboratory results: patent US20020165156A1 (Biogen, published 2002)

Target: T1, soluble flag-hBAFF (amino acids L83-L285) (human, UniProt Q9Y275 83-285)
T1 construct: range 83-285; also called FLAG-tagged human BAFF; not shown: FLAG tag
Assay: plate assay, 0.5 ug/ml FLAG-hBAFF on pJST535-transfected 293EBNA cells, anti-FLAG M2 and alkaline phosphatase / fast red
Protocol: Full-length human BAFF-R was generated from BJAB polyA+RNA using the SuperscriptII preamplification kit (Life Technologies) to generate the cDNA template and amplified by Pfu1 using primers complementary to the 5′ and 3′ coding sequences of BAFF-R. The PCR product was cloned into CH269, a derivative of pCEP4 (Invitrogen). The resultant clone was termed pJST535. Human embryonic kidney cells containing the EBNA-1 gene (293EBNA) were seeded into 6 well plates coated with fibronectin and transfected by lipofectamine (Life Technologies) with either pJST535 at various dilutions or CH269 as a background control. At 48 hrs post transfection, transfected cells were assayed for their ability to bind soluble flag-hBAFF(amino acids L83-L285) as follows. All incubations were at room temperature. Conditioned media was aspirated from the wells and the cells washed with BHA buffer (20 mM HEPES pH7.0, 0.5mg/ml BSA, 0.1% NaN3) and incubated with 0.5 ug/ml FLAG-hBAFF diluted in PBS containing 1 mM MgCl2, 1 mM CaCl2 and 0.1% NaN3. After an 1 hr. incubation, the BAFF solution was removed and the cells were washed with BHA. The cells were next incubated for 30 min. in a PBS solution containing 1 ug/ml of the anti-FLAG monoclonal antibody, M2 (Sigma). This solution was aspirated and the cells were washed with BHA. […]

T1 sequence (Q9Y275 83-285 limits assumed): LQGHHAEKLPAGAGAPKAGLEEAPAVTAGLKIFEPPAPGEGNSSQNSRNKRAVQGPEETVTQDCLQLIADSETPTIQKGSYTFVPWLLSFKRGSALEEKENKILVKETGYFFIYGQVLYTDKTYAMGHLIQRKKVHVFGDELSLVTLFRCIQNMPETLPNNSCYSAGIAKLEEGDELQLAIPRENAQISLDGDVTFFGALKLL

binding result: binds
B1: full-length human BAFF-R (BCMA) expressed on 293EBNA cells transfected with pJST535 (receptor)
chain: MLQMAGQCSQNEYFDSLLHACIPCQLRCSSNTPPLTCQRYCNASVTNSVKGTNAILWTCLGLSLIISLAVFVLMFLLRKISSEPLKDEFKNTGSGLLGMANIDLEKSRTGDEIILPRGLEYTVEECTCEDCIKSKPKVDSDHCFPLPAMEEGATILVTTKTNDYCKSLPAALSATEIEKSISAR
